Reference: article PMC2955292 (Chemistry & biology, 2010)
“And” between values parts separate entries of the source, which are not always exact repeats. Identical values can stand only once.

Molecular target: the molecule itself
Experiment: AUC

B1: Escherichia coli ClpP (enzyme)
chain: not shown
In the case of B1, the “stoichiometry N” value is reported as 14 and 7.
